Changes are numbered by the printed parent chain. Marks after values point to notes of the source that are not given here. One block for each molecule: values may come before it. Starred links: 1 amine or outer side, 2 acyl side, 3 side chain; linkers in the order of their positions; H or OH if unused. Non-standard residues stand in square brackets, D forms with d. Residues, ends and D or L forms follow the SMILES beside them. *: point of attachment. Exatecan = CC[C@@]1(O)C(=O)OCc2c1cc1n(c2=O)Cc2c-1nc1cc(F)c(C)c3c1c2[C@@H](N*)CC3; Hexanoyl(6-maleimido) = O=C1C=CC(=O)N1CCCCCC(=O)*; X1 = C[C@@H](OCN[*:1])C(=O)[*:2]
What was measured:
[1] = Assay 8: stability of linker-drug compounds; type: physicochemical; conditions: high temperature, high humidity, illumination or 0.5% BSA-PBS; compared with Deruxtecan
Method: Different linker-drug compounds such as Deruxtecan and JSSW-001 were studied under high temperature (40°C, 60°C), high humidity (25°C/75% RH and 25°C/92.5% RH), illumination (illuminance 4500Lux, near-UV energy 90µw/cm^2), or 0.5% BSA-PBS conditions. Samples were collected at different times after exposure to these conditions, and the concentration changes of the linker-drug compounds in the samples were detected using the LC-MS/MS method.

[2] = test system: human colorectal cancer DiFi xenograft tumor; test: Assay 16: DiFi xenograft efficacy of patritumab-ADC; type: in vivo, NU/NU mice; conditions: 10 mg/kg i.v./qw*3w (as in Table 29)
Text: (§1) NU/NU mice, 5-6 weeks old, 18 mice
(§2) The assay was terminated on day 28 after the administration.

[3] = test system: human colon cancer SW620 xenograft tumor; test: Assay 15: SW620 xenograft efficacy; type: in vivo, NU/NU mice; conditions: 7 mg/kg i.v./single administration
Text: as §1
The assay was terminated on day 26 after the administration.

[4] = test system: human lung cancer PC9-GR (gefitinib-resistant cell) xenograft tumor; test: Assay 3: PC9-GR xenograft efficacy of patritumab-ADC; type: in vivo, NU/NU mice; conditions: 3 mg/kg i.v./qw*4w
Text: NU/NU mice, 5-6 weeks old, 16 mice
as §2

EGFR on MDA-MB-468 cells [5] = target: T1, EGFR on MDA-MB-468 cells (human, UniProt P00533 25-1210); test: flow cytometry (FACS) on MDA-MB-468 cells, pH 7.4; end of the range tied to SWY2111 by Table 1
T1 construct: whole, on cells; also called target antigen; HER1

EGFR on MDA-MB-468 cells [6] = target: T1, EGFR on MDA-MB-468 cells; test: flow cytometry (FACS) on MDA-MB-468 cells, antibody diluted in PBS pH 6.0, FITC anti-human Fc secondary
EGFR on MDA-MB-468 cells [7] = target: T1, EGFR on MDA-MB-468 cells; test: flow cytometry (FACS) on MDA-MB-468 cells, pH 6.0; end of the range tied to SWY2111 by Table 1
EGFR on MDA-MB-468 cells [8] = target: T1, EGFR on MDA-MB-468 cells; test: flow cytometry (FACS) on MDA-MB-468 cells, antibody diluted in PBS pH 7.4, FITC anti-human Fc secondary
EGFR on MDA-MB-468 cells [9] = target: T1, EGFR on MDA-MB-468 cells; test: flow cytometry (FACS) on MDA-MB-468 cells, pH 6.0
EGFR on MDA-MB-468 cells [10] = target: T1, EGFR on MDA-MB-468 cells; test: flow cytometry (FACS) on MDA-MB-468 cells, pH 7.4; end of the range tied to SWY2113 by Table 1
EGFR on MDA-MB-468 cells [11] = target: T1, EGFR on MDA-MB-468 cells; test: flow cytometry (FACS) on MDA-MB-468 cells, pH 6.0; end of the range tied to SWY2112 by Table 1

Molecule: CC[C@@]1(O)C(=O)OCc2c1cc1n(c2=O)Cc2c-1nc1cc(F)c(C)c3c1c2[C@@H](NC(=O)[C@@H](C)OCNC(=O)CNC(=O)[C@H](Cc1ccccc1)NC(=O)CNC(=O)CNC(=O)CCCCCN1C(=O)C=CC1=O)CC3 [JSSW-001, N-((2R,10S)-10-benzyl-1-(((1S,9S)-9-ethyl-5-fluoro-9-hydroxy-4-methyl-10,13-dioxo-2,3,9,10,13,15-hexahydro-1H,12H-benzo[de]pyrano[3',4':6,7]indolizino[1,2-b]quinolin-1-yl)amino)-2-methyl-1,6,9,12,15-pentaoxo-3-oxa-5,8,11,14-tetraazahexadecan-16-yl)-6-(2,5-dioxo-2,5-dihydro-1H-pyrrol-1-yl)hexanamide] ({Hexanoyl(6-maleimido)}-GGFG[X1]-Exatecan)
stability of linker-drug compound [1]: better stability

Molecule: patritumab-DXD ADC (DAR=7.3): patritumab conjugated with commercially available Deruxtecan [reference compound]
TGI (%) Day 28 [2]: 54.0%
Tumor Volume ([2]; 28 days): 512.5 ± 470.8* mm^3
TGI (%) Day 21 [3]: 73.2%
Tumor Volume ([3]; 21 days): 461.3±278.1*** mm^3
TGI (%) Day 28 [4]: 59.5%
Tumor Volume ([4]; 28 days): 373.4 ± 102.8** mm^3

fold decrease of affinity compared to SWY2110 at pH=7.4 (EGFR on MDA-MB-468 cells [5]): 3 times
EC50 (EGFR on MDA-MB-468 cells [6]): 0.6 nM
fold change of affinity compared to SWY2110 at pH=6.0 (EGFR on MDA-MB-468 cells [7]): 1.2 to 1.3 times
EC50 (EGFR on MDA-MB-468 cells [8]): 1.45 nM
B1: SWY2111 (antibody, human IgG1, kappa, V domains shown)
VH: QVQLQESGPGLVKPSETLSLTCTVSGFSLSDYDVHWVRQAPGKGLEWLGVIWSGGNTDYNTPFTSRLTISVDTSKNQFSLKLSSVTAADTAVYYCARALDDYDYEFAYWGQGTLVTVSS
VL: EIVLTQSPDFQSVTPKEKVTITCRASQSIGTNIHWYQQKPDQSPKLLIKYASESISGIPSRFSGSGSGTDFTLTINSLEAEDAATYYCQQNNEWPTSFGQGTKLEIKR
notes: also called EGFR antibody SWY2111

EC50 (EGFR on MDA-MB-468 cells [6]): 3.39 nM
fold decrease of affinity compared to SWY2110 at pH=6.0 (EGFR on MDA-MB-468 cells [9]): 6.6 times
EC50 (EGFR on MDA-MB-468 cells [8]): 4.76 nM
fold decrease of affinity compared to SWY2110 at pH=7.4 (EGFR on MDA-MB-468 cells [10]): 3 to 9.7 times
B2: SWY2113 (antibody, human IgG1, kappa, V domains shown)
VH: B1 VH with D31H
VL: B1 VL
notes: also called EGFR antibody SWY2113

EC50 (EGFR on MDA-MB-468 cells [6]): 0.67 nM
EC50 (EGFR on MDA-MB-468 cells [8]): 2.35 nM
fold change of affinity compared to SWY2110 at pH=6.0 (EGFR on MDA-MB-468 cells [11]): 1.2 to 1.3 times
B3: SWY2112 (antibody, human IgG1, kappa, V domains shown)
VH: B1 VH with D31E
VL: B1 VL
notes: also called EGFR antibody SWY2112

From patent publication EP4714469A1, “PHARMACEUTICAL COMPOSITION COMPRISING ANTIBODY-DRUG CONJUGATE” (CSPC Megalith Biopharmaceutical Co., Ltd., priority 2023, dated 2024)
